Measured values taken from patent US20250243262A1.
pKd: −log10 of the molar value.

What was measured:
[1] = molecular target: rPcrV protein (recombinant Pseudomonas PcrV) (Pseudomonas aeruginosa); experiment: SPR (Bio-Rad ProteOn XPR36); antibody captured, rPcrV as analyte; table under the sensorgram
[2] = molecular target: rPcrV protein (recombinant Pseudomonas PcrV) (Pseudomonas aeruginosa); experiment: SPR (Bio-Rad ProteOn XPR36); antibody captured by anti-human IgG on GLC chip, rPcrV injected
[3] = molecular target: rPcrV protein (recombinant Pseudomonas PcrV) (Pseudomonas aeruginosa); experiment: SPR (Bio-Rad ProteOn XPR36); antibody captured on GLC sensor chip with anti-human IgG, rPcrV injected at multiple concentrations

“V2L2-MD (germlined lead optimized V2L2) (antibody)” was tested, and the pKd [1] was 10.34, the koff [1] was 4.03e-05 s⁻¹ and the kon [1] was 884000 M⁻¹ s⁻¹. For the same substance, the fold increase in Kd over V2L2-GL [2] was 2 to 3 fold, the pKd [3] was 10.34 and the koff [3] was 4.03e-05 s⁻¹. It also gave a kon [3] of 884000 M⁻¹ s⁻¹.
